Values quoted from earlier work in publication PMC5257200.

Target: His19 (UniProt position 19, ILSALHFMAWT)
Conditions: Membrane-bound peptide

In the case of “Influenza B virus M2 protein peptide BM2(3–33) (Influenza B virus (strain not stated for this construct))”, the pKa is given as roughly 6.5.
